This note sets out measurements from the supplement of paper PMC7877785.

± gives the uncertainty stated by the source.

The data set in a line: self-splicing fitness, log relative to wild type (ln ratio); higher = more splicing; Tetrahymena group I intron in knt gene, E. coli kanamycin selection, DiMSum; sequences stand for … in CUCUCU…GGAGGGAAAAGUUAUCAGGCAUGCACCUGGUAGCUAGUCUUUAAACCAAUAGAUUGCAUCGGUUUAAAAGGCAAGACCGUCAAAUUGCGGGAAAGGGGUCAACAGCCGUUCAGUACCAAGUCUCAGGGGAAACUUUGAGAUGGCCUUGCAAAGGGUAUGGUAAUAAGCUGACGGACAUGGUCCUAACCACGCAGCCAAGUCCUAAGUCAACAGAUCUUCUGUUGAUAUGGAUGCAGUUCACAGACUAAAUGUCGGUCGGGGAAGAUGUAUUCUUCUCAUAAGAUAUAGUCGGACCUCUCCUUAAUGGGAGCUAGCGGAUGAAGUGAUGCAACACUGGAGCCGCUGGGAACUAAUUUGUAUGCGAAAGUAUAUUGAUUAGUUUUGGAGUACUCGUGGUCG
A digest of the protocol:
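A randomised library covering all eight P1ex-region intron nucleotides was built with the intron in the knt kanamycin-resistance gene on pET-22b(+) and held in E. coli BL21(DE3). Cells were grown overnight at 37°C or 30°C on LB agar, with or without 25 μg/mL kanamycin, plus 100 μg/mL carbenicillin, 50 μM IPTG and 0.2% rhamnose, and pooled colonies were amplicon-sequenced on an Illumina HiSeq 2500. DiMSum fitness is the error-weighted combination of wild-type-normalised replicate fold changes, kanamycin versus none.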

As for GCAAAGCAAUAUUACGAAGU, the “self-splicing fitness (ln)” value (30 °C) is -3.24 ± 0.16 and the “self-splicing fitness (ln)” value (37 °C) is -1.22 ± 0.11.

Consider CAACAGCAAUAUUACGAUCA, for which the “self-splicing fitness (ln)” value (30 °C) was -1.6 ± 0.097 and the “self-splicing fitness (ln)” value (37 °C) was -1.33 ± 0.12.

As to CAAGAGCAAUAUUACGAAUU, the “self-splicing fitness (ln)” value (30 °C) is -3.25 ± 0.17 and the “self-splicing fitness (ln)” value (37 °C) is -2.64 ± 0.32.

In the case of UGUUAGCAAUAUUACGCUUG, the “self-splicing fitness (ln)” value is, setting by setting: (30 °C) -2.03 ± 0.14; (37 °C) -0.556 ± 0.12.

ACGGAGCAAUAUUACGAUUA: the “self-splicing fitness (ln)” value by setting is: (30 °C) -2.6 ± 0.25; (37 °C) -2.23 ± 0.29.

As for AUCUAGCAAUAUUACGGAAG, the “self-splicing fitness (ln)” value (30 °C) is -1.99 ± 0.12 and the “self-splicing fitness (ln)” value (37 °C) was -0.947 ± 0.15.

Turning to AAGGAGCAAUAUUACGAAGG, the “self-splicing fitness (ln)” value runs as follows: (30 °C) -3.3 ± 0.28; (37 °C) -2.99 ± 0.41.

As to GGCUAGCAAUAUUACGAGAC, where the note is “30 °C”, the “self-splicing fitness (ln)” value was -3.62 ± 0.44.

For UAAUAGCAAUAUUACGGUGU, the “self-splicing fitness (ln)” value by setting is: (30 °C) -2.98 ± 0.21; (37 °C) -2.93 ± 0.3.

Turning to CUUGAGCAAUAUUACGUAGC, the “self-splicing fitness (ln)” value reads like this: (30 °C) -3.2 ± 0.2; (37 °C) -2.4 ± 0.29.

As to CCCCAGCAAUAUUACGUAGC, the “self-splicing fitness (ln)” value is -3.93 ± 0.16 (30 °C) and -2.93 ± 0.2 (37 °C).

Consider UCGGAGCAAUAUUACGGGCC, for which the “self-splicing fitness (ln)” value (30 °C) was -4.15 ± 0.39 and the “self-splicing fitness (ln)” value (37 °C) was -3.6 ± 0.33.

For UAAAAGCAAUAUUACGACGU, the “self-splicing fitness (ln)” value by setting is: (30 °C) -0.791 ± 0.13; (37 °C) -0.527 ± 0.12.

Turning to AACUAGCAAUAUUACGAAAU, the “self-splicing fitness (ln)” value is, setting by setting: (30 °C) -2.01 ± 0.09; (37 °C) -0.94 ± 0.1.

On to AGCUAGCAAUAUUACGCGGC, for which the “self-splicing fitness (ln)” value reads like this: (30 °C) -3.24 ± 0.32; (37 °C) -1.99 ± 0.38.

With CAAGAGCAAUAUUACGCACA, the “self-splicing fitness (ln)” value is, setting by setting: (30 °C) -2.72 ± 0.36; (37 °C) -1.53 ± 0.43.

Consider UUAAAGCAAUAUUACGCAUU, for which the “self-splicing fitness (ln)” value (30 °C) is -2.76 ± 0.15 and the “self-splicing fitness (ln)” value (37 °C) is -2.86 ± 0.27.

As for GCUGAGCAAUAUUACGAAAU, the “self-splicing fitness (ln)” value (30 °C) was -3.27 ± 0.2 and the “self-splicing fitness (ln)” value (37 °C) is -2.43 ± 0.22.

With UGCCAGCAAUAUUACGUCUC, the “self-splicing fitness (ln)” value was -4.62 ± 0.29 (30 °C) and -2.11 ± 0.25 (37 °C).

With CCUAAGCAAUAUUACGUCAG, the “self-splicing fitness (ln)” value was -1.58 ± 0.12 (30 °C) and -0.812 ± 0.12 (37 °C).

As for UCAAAGCAAUAUUACGAUAG, the “self-splicing fitness (ln)” value (30 °C) was -0.853 ± 0.11 and the “self-splicing fitness (ln)” value (37 °C) is -2.03 ± 0.15.

Take UAAUAGCAAUAUUACGACAU: the “self-splicing fitness (ln)” value reads like this: (30 °C) -3.378 ± 0.025; (37 °C) -1.95 ± 0.036.

GUUAAGCAAUAUUACGUACA: the “self-splicing fitness (ln)” value (30 °C) was -1.04 ± 0.11 and the “self-splicing fitness (ln)” value (37 °C) is -0.694 ± 0.16.

On to GUGUAGCAAUAUUACGUAGG, for which the “self-splicing fitness (ln)” value (30 °C) was -2.66 ± 0.18 and the “self-splicing fitness (ln)” value (37 °C) was -1.5 ± 0.18.

On to CGGCAGCAAUAUUACGUGGA, for which the “self-splicing fitness (ln)” value by setting is: (30 °C) -2.73 ± 0.26; (37 °C) -1.72 ± 0.27.

Consider ACGGAGCAAUAUUACGGUAU, for which the “self-splicing fitness (ln)” value reads like this: (30 °C) -4.48 ± 0.25; (37 °C) -2.58 ± 0.2.

Turning to UUGUAGCAAUAUUACGCAAG, the “self-splicing fitness (ln)” value by setting is: (30 °C) -1.29 ± 0.17; (37 °C) -0.849 ± 0.2.

Regarding ACGCAGCAAUAUUACGAUCC, the “self-splicing fitness (ln)” value was -2.24 ± 0.15 (30 °C) and -1.09 ± 0.17 (37 °C).

On to AAGCAGCAAUAUUACGUUUU, for which the “self-splicing fitness (ln)” value runs as follows: (30 °C) -3.3 ± 0.14; (37 °C) -2.52 ± 0.14.

GCCGAGCAAUAUUACGCUUC: the “self-splicing fitness (ln)” value runs as follows: (30 °C) -2.53 ± 0.18; (37 °C) -1.65 ± 0.25.

As to GUUGAGCAAUAUUACGUGCG, the “self-splicing fitness (ln)” value (30 °C) is -3.02 ± 0.21 and the “self-splicing fitness (ln)” value (37 °C) is -2.07 ± 0.25.

Turning to AAUUAGCAAUAUUACGAGAA, the “self-splicing fitness (ln)” value (30 °C) was -2.65 ± 0.48 and the “self-splicing fitness (ln)” value (37 °C) is -1.05 ± 0.28.

Turning to UAUCAGCAAUAUUACGUCGU, the “self-splicing fitness (ln)” value is, setting by setting: (30 °C) -3.02 ± 0.12; (37 °C) -1.6 ± 0.1.

Regarding CGCUAGCAAUAUUACGUUGC, the “self-splicing fitness (ln)” value is -3.3 ± 0.33 (30 °C) and -2.98 ± 0.29 (37 °C).

On to GAAGAGCAAUAUUACGACCG, for which, under “30 °C”, the “self-splicing fitness (ln)” value is -2.29 ± 0.36.

Turning to ACACAGCAAUAUUACGCAGC, the “self-splicing fitness (ln)” value is, setting by setting: (30 °C) -3.73 ± 0.19; (37 °C) -2.47 ± 0.17.

UGCUAGCAAUAUUACGUUCG: the “self-splicing fitness (ln)” value was -0.807 ± 0.065 (30 °C) and -0.115 ± 0.091 (37 °C).

As for AAGCAGCAAUAUUACGCCGG, the “self-splicing fitness (ln)” value by setting is: (30 °C) -1.52 ± 0.11; (37 °C) -0.994 ± 0.17.
